Data: patent publication US9434785

T1: recombinant human OX40L (extracellular domain with FLAG peptide motif and isoleucine zipper motif) (human, UniProt P23510 51-183, biotinylated in the HTRF assays (sites not given))
T1 construct: extracellular domain; It was biotinylated for HTRF and is not described as biotinylated for SPR or the T-cell assay; also called hOX40L; recombinant hOX40L; not shown: FLAG peptide motif and isoleucine zipper motif
T1 sequence (looked up): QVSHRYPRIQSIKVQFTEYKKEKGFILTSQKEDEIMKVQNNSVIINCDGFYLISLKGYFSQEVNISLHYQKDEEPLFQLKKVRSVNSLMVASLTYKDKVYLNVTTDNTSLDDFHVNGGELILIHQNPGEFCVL


Columns and labels:
[1] = target: T1, recombinant human OX40L (extracellular …); experiment: HTRF ligand/receptor neutralisation; competitor OX40RFc-AF647 on biotinylated hOX40L; mean of three experiments, SEM +/-0.04
Procedure: (§1) Profiling of Fully Human Recombinant Anti-OX40L Antibodies in HTRF Ligand/Receptor Neutralisation Assay In order to determine whether recombinantly expressed fully human purified IgG inhibit human OX40L binding to OX40RFc the following method was carried out. Fully human purified IgG or other inhibitor were tested in order to establish the clone potency as measured by IC$50$ values in the assay. Antibodies recombinantly expressed and purified were titrated by diluting in HTRF assay buffer and 5 μL of this titration transferred to a white 384 well low volume non-binding surface polystyrene plate (Greiner). Biotinylated OX40L was diluted in HTRF assay buffer to a working concentration of 2.4 nM and 5 μL added. OX40RFc directly labelled with AF647 was then diluted to working concentration of 10 nM and 5 μL added. […] Plates were covered, protected from light and incubated at room temperature for 3 hrs prior to reading time resolved fluorescence at 620 nm and 665 nm emission wavelengths using an EnVision plate reader (Perkin Elmer). Data were analysed by calculating delta F as described in Equation 4 and percentage of receptor for each sample according to Equation 5 or in some cases Equation 6. IC$50$ values were determined using GraphPad Prism software by curve fitting using a four-parameter logistic equation (Equation 7) (FIG. 1).

[2] = target: T1, recombinant human OX40L (extracellular …); experiment: cell-based or functional assay
[3] = target: T1, recombinant human OX40L (extracellular …); experiment: SPR (ProteOn XPR36), apparent affinity, antibody captured on anti-mouse IgG, hOX40L at 256 nM, 1:1 model, 25 C
Procedure: SPR analysis was carried out using the ProteOn™ XPR36 Array System (BioRad). Anti-mouse IgG (GE Healthcare BR-1008-38) was immobilised on a GLM biosensor surface using amine coupling, the surface was then blocked using 1 M ethanolamine. Test antibodies were captured on this surface and recombinant hOX40L (human and rhesus) were used at a single concentration of 256 nM, binding sensorgrams were double referenced using a buffer injection (i.e. 0 nM) to remove baseline drift and injection artefacts. Apparent affinities for the OX40L-antibody interaction were determined using the 1:1 model inherent to the ProteOn XPR36 analysis software. The assay was run using HBS-EP (Teknova) as running buffer and carried out at 25° C.

[4] = target: T1, recombinant human OX40L (extracellular …); experiment: HTRF ligand/receptor neutralisation; competitor OX40RFc-AF647 on biotinylated hOX40L; mean of three experiments, SEM +/-0.17
Procedure: as §1

| IC50 [1] [nM] | Primary T-cell Assay IC50 nM (recombinant OX40L induced IL2 release from primary isolated T-cells) [2] [nM] | Kd [3] [nM] | IC50 [4] [nM] | Binder |
| --- | --- | --- | --- | --- |
| – | 0.83 | – | 1.2 | 10A07 (human) (antibody, V domains shown, also called 10A7; mAb 10A7) VH: EVQLVESGGVLVQPGGSLRLSCAASGFTFSSYIMTWVRQAPGKGLEWVSGISGSGGGTYYADSMKGRFTISRDNSKNTLYLQMNSLRVEDTAVYYCAKDRLGPITLVRGGYYYGMDVWGQGTTVTVSS VL: DIQMTQSPSSLSASVGDRVTITCRASQSISDYLNWYQQKPGKAPKFLIYAASSLQSGVPSRFSGSGSGTDFTLTVSSLQPEDFATYYCQQSYSTPRTFGQGTRVEIK |
| – | – | 2.2 | – | 19H01 (hybridoma) (antibody, V domains shown, Murine/human chimeric antibody purified from hybridoma supernatant (human variable domains, mouse constant regions)) VH: not shown VL: DIQMTQSPSSLSASVGDRVTITCRASQGISNYLAWYQQKPGKIPKLLIYAASTLQSGVPSRFSGSGSGTDFTLTISSLQPEDVATYYCQKYNSAPRTFGQGTKVEIK |

More lines, now with the values behind:

| Binder | IC50 [1] [nM] | Primary T-cell Assay IC50 nM (recombinant OX40L induced IL2 release from primary isolated T-cells) [2] [nM] | Kd [3] [nM] | IC50 [4] [nM] |
| --- | --- | --- | --- | --- |
| 2D10 (human) (antibody, human IgG4 S228P, kappa, V domains shown, Recombinant fully human IgG4-PE (Ser228Pro, Leu235Glu) with a human kappa light chain; also called 02D10; 2D10 IgG4PE) VH: EVQLVESGGGLVQPGGSLRLSCAASGFTFSNYAMNWVRQAPGKGLEWVSTISGSGGATRYADSVKGRFTISRDNSRNTVYLQMNSLRVEDTAVFYCTKDRLIMATVRGPYYYGMDVWGQGTTVTVSS VL: DIQMTQSPSSLSASVGDRVTITCRASQSISSYLNWYQQKPGKAPNLLIYAASSLQSGVPSRFSGSGSETDFTLTISSLQPEDFATYYCQQSHSVSFTFGPGTKVDIKR | 0.75 | 0.81 | – | – |
| 9H04 (hybridoma) (antibody, V domains shown, Murine/human chimeric antibody purified from hybridoma supernatant (human variable domains, mouse constant regions); also called 09H04) VH: QVQLVESGGGLVKPGGSLRLSCAASRFTLSDYYMTWIRQAPGKGLEWVSYISSSGNTIYYADSVKGRFTISRDNAKNSLYLQMNSLRAEDTAVYYCARDLSGSYWDYYYGMDVWGQGTTVTVSS VL: AIQLTQSPSSLSTSVGDRVTIACRASQGINNALAWYQQKPGKAPKLLIYDASSLESGVPSRFSGSGSGTDFTLTISSLQPEDFATYYCQQFNSYPRTFGQGTKVEIK | – | – | 5.3 | – |
